Measured values as given in patent US20260167727A1 (FIBRO BIOMED TECHNOLOGY GUANGZHOU, published 2026).

T1: DDR2 antigen overexpressed on cells (UniProt Q16832)
T1 sequence (looked up): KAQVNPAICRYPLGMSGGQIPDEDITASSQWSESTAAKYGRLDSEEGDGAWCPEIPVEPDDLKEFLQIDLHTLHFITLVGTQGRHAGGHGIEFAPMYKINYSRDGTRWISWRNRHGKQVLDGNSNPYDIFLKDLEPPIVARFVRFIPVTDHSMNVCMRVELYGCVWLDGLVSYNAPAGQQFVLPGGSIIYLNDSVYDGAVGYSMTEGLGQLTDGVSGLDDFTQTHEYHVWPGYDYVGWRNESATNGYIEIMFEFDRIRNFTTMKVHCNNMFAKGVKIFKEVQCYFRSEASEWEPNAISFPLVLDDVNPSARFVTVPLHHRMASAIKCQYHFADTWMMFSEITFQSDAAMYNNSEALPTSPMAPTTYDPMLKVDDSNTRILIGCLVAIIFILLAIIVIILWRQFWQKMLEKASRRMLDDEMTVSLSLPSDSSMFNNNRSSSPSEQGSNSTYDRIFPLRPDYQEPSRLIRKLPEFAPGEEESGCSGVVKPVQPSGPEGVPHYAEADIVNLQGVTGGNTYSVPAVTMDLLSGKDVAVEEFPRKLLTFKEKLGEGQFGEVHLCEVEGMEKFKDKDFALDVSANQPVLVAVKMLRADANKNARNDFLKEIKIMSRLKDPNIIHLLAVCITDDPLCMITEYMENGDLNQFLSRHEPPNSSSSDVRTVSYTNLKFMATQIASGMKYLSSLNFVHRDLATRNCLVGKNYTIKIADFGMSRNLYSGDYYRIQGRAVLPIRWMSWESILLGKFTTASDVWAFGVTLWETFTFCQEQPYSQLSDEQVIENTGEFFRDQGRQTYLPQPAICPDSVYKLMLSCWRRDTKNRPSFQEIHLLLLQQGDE

T2: human DDR2 in lung tissue (human, UniProt Q16832 22-855)
T2 construct: whole, on cells; Endogenous protein in tissue slices; also called DDR2 in lung tissue of IPF patients
T2 sequence (looked up): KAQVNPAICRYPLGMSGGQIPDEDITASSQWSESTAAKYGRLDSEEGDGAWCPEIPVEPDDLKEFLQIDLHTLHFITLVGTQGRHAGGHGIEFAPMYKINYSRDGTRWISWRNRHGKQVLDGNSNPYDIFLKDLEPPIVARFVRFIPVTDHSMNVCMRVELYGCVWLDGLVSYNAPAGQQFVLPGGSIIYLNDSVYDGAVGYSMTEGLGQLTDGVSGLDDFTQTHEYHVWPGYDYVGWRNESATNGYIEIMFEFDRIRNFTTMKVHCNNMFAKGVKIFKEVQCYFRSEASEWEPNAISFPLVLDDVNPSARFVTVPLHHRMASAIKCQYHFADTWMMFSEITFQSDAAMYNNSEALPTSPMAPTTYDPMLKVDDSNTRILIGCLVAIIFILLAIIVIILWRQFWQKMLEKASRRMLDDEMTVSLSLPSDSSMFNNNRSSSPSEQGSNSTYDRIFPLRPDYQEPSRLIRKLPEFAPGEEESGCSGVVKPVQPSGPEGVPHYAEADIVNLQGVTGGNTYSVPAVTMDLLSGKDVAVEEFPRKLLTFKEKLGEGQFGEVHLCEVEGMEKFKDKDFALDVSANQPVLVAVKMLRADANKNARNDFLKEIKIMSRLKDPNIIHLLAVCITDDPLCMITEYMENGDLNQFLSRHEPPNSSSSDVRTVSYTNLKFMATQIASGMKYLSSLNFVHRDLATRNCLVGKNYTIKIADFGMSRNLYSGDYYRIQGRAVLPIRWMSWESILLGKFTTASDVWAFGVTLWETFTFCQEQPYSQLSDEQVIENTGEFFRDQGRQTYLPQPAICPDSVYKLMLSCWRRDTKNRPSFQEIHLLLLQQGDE

T3: mouse DDR2 in tissue (mouse, UniProt Q62371 22-854)
T3 construct: whole, on cells; Endogenous protein in tissue slices, not a purified protein; also called DDR2 in mouse lung tissue slices; DDR2 in the mouse retina
T3 sequence (looked up): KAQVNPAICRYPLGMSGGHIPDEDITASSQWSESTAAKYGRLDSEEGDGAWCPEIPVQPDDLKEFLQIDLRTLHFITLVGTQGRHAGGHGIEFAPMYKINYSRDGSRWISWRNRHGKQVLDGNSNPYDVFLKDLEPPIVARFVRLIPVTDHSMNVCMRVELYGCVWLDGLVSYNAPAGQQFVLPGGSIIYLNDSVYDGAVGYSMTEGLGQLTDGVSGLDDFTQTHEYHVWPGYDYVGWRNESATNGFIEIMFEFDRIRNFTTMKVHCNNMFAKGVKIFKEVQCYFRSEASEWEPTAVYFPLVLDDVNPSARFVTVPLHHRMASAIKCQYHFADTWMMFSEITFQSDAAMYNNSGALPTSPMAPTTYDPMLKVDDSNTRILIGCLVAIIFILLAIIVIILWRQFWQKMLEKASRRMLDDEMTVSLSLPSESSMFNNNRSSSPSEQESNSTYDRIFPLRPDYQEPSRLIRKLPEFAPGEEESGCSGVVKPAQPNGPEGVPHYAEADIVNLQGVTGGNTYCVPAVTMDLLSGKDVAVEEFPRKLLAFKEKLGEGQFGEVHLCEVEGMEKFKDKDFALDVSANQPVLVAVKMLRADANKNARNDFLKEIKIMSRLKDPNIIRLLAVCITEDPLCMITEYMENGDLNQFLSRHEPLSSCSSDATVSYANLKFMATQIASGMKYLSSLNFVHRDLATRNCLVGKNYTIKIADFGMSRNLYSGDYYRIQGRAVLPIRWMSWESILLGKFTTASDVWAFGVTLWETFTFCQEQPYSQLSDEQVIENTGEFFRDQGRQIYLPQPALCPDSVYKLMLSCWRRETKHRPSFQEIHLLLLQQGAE

T4: human DDR2 extracellular segment (human, UniProt Q16832 22-399)
T4 construct: range 22-399; In BLI it carried a His tag (printed 'Hig tag') and was captured on Ni-NTA; also called extracellular segment of DDR2 antigen; extracellular segment protein of DDR2 antigen
T4 sequence (looked up): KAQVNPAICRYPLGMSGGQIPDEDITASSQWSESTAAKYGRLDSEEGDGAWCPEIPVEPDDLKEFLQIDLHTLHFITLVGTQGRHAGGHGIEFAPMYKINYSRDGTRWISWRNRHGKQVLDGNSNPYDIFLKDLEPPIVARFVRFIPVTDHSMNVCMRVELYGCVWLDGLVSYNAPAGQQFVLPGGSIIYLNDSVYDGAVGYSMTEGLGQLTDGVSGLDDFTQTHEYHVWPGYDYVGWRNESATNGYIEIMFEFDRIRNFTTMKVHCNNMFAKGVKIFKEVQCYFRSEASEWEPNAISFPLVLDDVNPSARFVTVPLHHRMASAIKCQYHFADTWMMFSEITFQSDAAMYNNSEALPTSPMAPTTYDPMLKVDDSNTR


Assays:
[1] = target: T1, DDR2 antigen overexpressed on cells; assay: flow cytometry on 293T DDR2 cells, anti-His-488 secondary; control on 293T DDR2 R3 0.94%; on parental 293T cells 1A1-1A12 R3 0.44% and control R3 0.46%
[2] = target: T2, human DDR2 in lung tissue; assay: imaging of lung tissue slices of IPF patients and normal donors stained with ICG labeled 1A12
Method: Lung tissues from normal donors and patients with idiopathic pulmonary fibrosis (IPF) were cut to a thickness of 600 μm in vitro, with high expression of DDR2 in IPF patients' lung tissues and low or no expression of DDR2 in normal donors' lungs. The Normal group was used as control, and lung tissue slices from IPF patients were used as the experimental group. After staining with ICG labeled DDR2 nano-antibody 1A12, in vitro live imaging was performed.

mouse DDR2 in tissue = target: T3, mouse DDR2 in tissue; assay: near-infrared imaging of mouse lung tissue slices stained with ICG labeled 1A12 (untreated, bleomycin, mTGF-β)
Method: Fresh lung tissue from normal mice was cut into a thickness of […]. One was used as an untreated control, one was induced with bleomycin, and the other one was induced with mTGF-β cytokines, both for 72 hours (both treatment groups were able to promote DDR2 expression). Then, each group was stained with ICG labeled DDR2 nano-antibody 1A12 (1 ug per sample) for 30 minutes, followed by washing multiple times with PBS to remove non-specific staining. Then, imaging was performed using a live imaging device.

bovine serum albumin = target: T5, bovine serum albumin (bovine, UniProt P02769 25-607); assay: ELISA at one antibody amount, wells coated with antigen-DDR2 or BSA, OD450
T5 construct: also called BSA; negative control protein
Method: The Flag tag was fused into the nano-antibody gene coding sequence and five DDR2 antibodies with Flag tag were expressed and purified: TAT, 1A5, 1A12, 1B2, 1B3; Then, the extracellular segment of DDR2 antigen was used to coat at 100 ng/well→goat serum was used to block overnight→PBS was used to wash three times, anti-DDR2 (five purified DDR2 antibodies, all comprising Flag tag) 200 ng/well, 37° C. 1 h→Anti Flag (Sigma, F1804-200UG, 1 mg/ml) 1:2500, 37° C. 1 h→G&M (HRP) 1:5000, 37° C. 30 min (horseradish peroxidase labeled anti Flag antibody amplification signal, TMB staining)→TMB staining at 37° C. 30 min→1M HCl for termination; A blank control was prepared simultaneously.
+[0199]5 nano-antibodies that were expressed and purified and identified as correct in the previous step, along with the extracellular segment of DDR2 antigen and the negative control protein bovine serum albumin (BSA), were subjected to ELISA validation.

[3] = target: T4, human DDR2 extracellular segment; assay: ELISA, plate coated with DDR2 extracellular segment, Flag-tagged nano-antibody titrated, anti-Flag then HRP secondary, TMB, OD450; design: unit not given here

T5 sequence (P02769 25-607 limits assumed): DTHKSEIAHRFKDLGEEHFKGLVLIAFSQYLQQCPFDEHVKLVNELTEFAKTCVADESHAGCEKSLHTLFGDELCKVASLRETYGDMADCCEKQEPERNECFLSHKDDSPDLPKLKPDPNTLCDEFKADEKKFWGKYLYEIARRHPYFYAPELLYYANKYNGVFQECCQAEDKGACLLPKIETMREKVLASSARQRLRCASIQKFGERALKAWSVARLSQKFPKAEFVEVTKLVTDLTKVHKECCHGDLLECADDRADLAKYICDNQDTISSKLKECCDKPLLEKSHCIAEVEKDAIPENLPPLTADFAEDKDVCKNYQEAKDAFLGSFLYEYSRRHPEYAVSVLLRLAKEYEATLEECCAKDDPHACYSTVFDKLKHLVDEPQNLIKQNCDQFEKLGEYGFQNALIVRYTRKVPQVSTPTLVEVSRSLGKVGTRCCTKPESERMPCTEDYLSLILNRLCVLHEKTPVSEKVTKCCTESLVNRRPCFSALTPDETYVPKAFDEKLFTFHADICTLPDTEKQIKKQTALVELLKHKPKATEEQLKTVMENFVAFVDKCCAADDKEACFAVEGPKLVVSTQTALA

Binder | binding result (bovine serum albumin) | further results
heterodimeric anti-DDR2 nano-antibody 1A1-1A12 (bispecific antibody, part only; not given: His tag, not shown: small tags and cut ends) chain, part: EVQLVESGGGLVQPGGSLRLSCAASGYILSPNVMGWFRQAPGKGRELVAAISWGDGRTYYPDSVEGRFTISRDNAKRMVYLQMNSLRAEDTAVYYCAASRKGYPSTRSDPYNYWGQGTQVTVSSGGGSGGGSGGGSEVQLVESGGGLVQPGGSLRLSCAASGRIFSINVMGWFRQAPGKGRELVAAINTRGGSTYYPDSVEGRFTISRDNAKRMVYLQMNSLRAEDTAVYYCAASRKGYPSTRSDPYDYWGQGTQVTVSS |  | R3, percent of cells in the FITC-H positive gate [1]: 33%
ICG labeled DDR2 nano-antibody 1A12 (VHH, indocyanine green (ICG) coupled with ICG-NHS; sites not stated, also called ICG labeled 1A12 nano-antibody; Nb-DDR2 labeled with indocyanine green) VHH: EVQLVESGGGLVQPGGSLRLSCAASGYILSPNVMGWFRQAPGKGRELVAAISWGDGRTYYPDSVEGRFTISRDNAKRMVYLQMNSLRAEDTAVYYCAASRKGYPSTRSDPYNYWGQGTQVTVSS |  | binding result [2]: binds; binding result (mouse DDR2 in tissue): binds
anti-DDR2 nano-antibody 1A1 (VHH, Expressed in E. coli BL21(DE3); also called 1A1-VHH) VHH: EVQLVESGGGLVQPGGSLRLSCAASGRIFSINVMGWFRQAPGKGRELVAAINTRGGSTYYPDSVEGRFTISRDNAKRMVYLQMNSLRAEDTAVYYCAASRKGYPSTRSDPYDYWGQGTQVTVSS | no binding | 
anti-DDR2 nano-antibody 1A12 (VHH, also called 1A12-VHH; DDR2 antibody 1A12) VHH: EVQLVESGGGLVQPGGSLRLSCAASGYILSPNVMGWFRQAPGKGRELVAAISWGDGRTYYPDSVEGRFTISRDNAKRMVYLQMNSLRAEDTAVYYCAASRKGYPSTRSDPYNYWGQGTQVTVSS | no binding | EC50 (read off the curve) [3]: ~1
anti-DDR2 nano-antibody 1A5 (VHH, also called 1A5-VHH) VHH: EVQLVESGGGLVQPGGSLRLSCAASGITLSLYIMGWFRQAPGKGRELVAAISRTGGSTYYPDSVEGRFTISRDNAKRMVYLQMNSLRAEDTAVYYCAADFYGNATLGYNYWGQGTQVTVSS | no binding | 
anti-DDR2 nano-antibody 1B3 (VHH, also called 1B3-VHH) VHH: EVQLVESGGGLVQPGGSLRLSCAASGDTFSYYVMGWFRQAPGKGRELVAAISRTGGSTYYPDSVEGRFTISRDNAKRMVYLQMNSLRAEDTAVYYCAADPYISGTLGYNYWGQGTQVTVSS | no binding | 
anti-DDR2 nano-antibody 1B2 (VHH, also called 1B2-VHH) VHH: EVQLVESGGGLVQPGGSLRLSCAASGYIFSIYAMGWFRQAPGKGRELVARISWGDGSTWYPDSVEGRFTISRDNAKRMVYLQMNSLRAEDTAVYYCAAAIKGRGVVTQLGYNYWGQGTQVTVSS | no binding | 
